Source: IntAct's records for PubMed 9874765

Biological target: cir1_human CIR1 (UniProt Q86X95)
Sequence (Q86X95 whole entry): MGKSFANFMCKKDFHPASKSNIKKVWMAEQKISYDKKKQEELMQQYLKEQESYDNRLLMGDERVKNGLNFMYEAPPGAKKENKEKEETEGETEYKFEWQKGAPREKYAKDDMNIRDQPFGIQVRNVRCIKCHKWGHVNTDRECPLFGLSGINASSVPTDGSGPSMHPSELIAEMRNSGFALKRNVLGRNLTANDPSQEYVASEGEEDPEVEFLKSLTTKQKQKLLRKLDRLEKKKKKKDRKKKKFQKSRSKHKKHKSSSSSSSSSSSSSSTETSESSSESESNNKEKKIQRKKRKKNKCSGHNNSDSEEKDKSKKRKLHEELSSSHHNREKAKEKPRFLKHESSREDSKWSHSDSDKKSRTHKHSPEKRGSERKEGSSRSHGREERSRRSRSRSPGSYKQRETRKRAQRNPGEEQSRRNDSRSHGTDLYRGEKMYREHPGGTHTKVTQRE

Chain of Recombining binding protein suppressor of hairless (Homo sapiens), Q06330 E233A;E234A;F235A (Q06330 whole entry E233A/E234A/F235A): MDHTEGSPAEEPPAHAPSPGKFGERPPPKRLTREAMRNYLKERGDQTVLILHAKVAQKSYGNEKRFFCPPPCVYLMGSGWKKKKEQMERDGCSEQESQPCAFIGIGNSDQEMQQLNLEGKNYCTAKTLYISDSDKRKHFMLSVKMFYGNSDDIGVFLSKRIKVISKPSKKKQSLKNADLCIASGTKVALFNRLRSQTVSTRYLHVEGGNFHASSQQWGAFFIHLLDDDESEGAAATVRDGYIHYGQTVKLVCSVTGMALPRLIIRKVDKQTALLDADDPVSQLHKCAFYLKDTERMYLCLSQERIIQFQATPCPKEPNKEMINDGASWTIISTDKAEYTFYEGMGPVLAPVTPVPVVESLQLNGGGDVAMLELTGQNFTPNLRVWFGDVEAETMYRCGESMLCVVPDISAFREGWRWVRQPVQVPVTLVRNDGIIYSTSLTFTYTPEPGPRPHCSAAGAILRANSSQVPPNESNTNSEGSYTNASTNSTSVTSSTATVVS
Chain of Recombining binding protein suppressor of hairless (Homo sapiens), Q06330 K249A;L250A;V251A (Q06330 whole entry K249A/L250A/V251A): as the sequence (Q06330 whole entry E233A/E234A/F235A) above, with A233E, A234E, A235F, K249A, L250A, V251A counted along it

Row | Substance | effect of a mutation on the interaction
1 | Recombining binding protein suppressor of hairless (Homo sapiens), Q06330 E233A;E234A;F235A | disrupting interaction strength
2 | Recombining binding protein suppressor of hairless (Homo sapiens), Q06330 K249A;L250A;V251A | disrupting interaction strength
